# Source: the DeepSol protein solubility set
# Test: soluble on expression in E. coli; label from the status in PepcDB or PDB records
row,Sequence,soluble on expression in E. coli
1,SSGLSFSEMEGCRNLLGLLDNDEIMALCDTVTNRLVQPQDRQDAVHAILAYSQSAEELLRRRKVHREVIFKYLATQGIVIPPATEKHNLIQHAKDYWQKQPQLKLKETPEPVTKTEDIHLFQQQVKEDKKAEKVDFRRLGEEFCHWFFGLLNSQNPFLGPPQDEWGPQHFWHDVKLRFYYNTSEQNVMDYHGAEIVSLRLLSLVKEEFLFLSPNLDSHGLKCASSPHGLVMVGVAGTVHRGNTCLGIFEQIFGLIRCPFVENTWKIKFINLKIMGESSLAPGTLPKPSVKFEQSDLEAFYNVITVCGTNEVRHNVKQASDSGTGDQV,soluble
2,SSKKYKLSEIHHLHPEYVRVSEHFKASMKNFKIEKIKKIENSELLDKFTWKKSQMKEEGKLLFYATSRAYVESICSNNFDSFLHETHENKYGKGIYFAKDAIYSHKNCPYDAKNVVMFVAQVLVGKFIEGNITYTSPPPQFDSCVDTRSNPSVFVIFQKDQVYPQYVIEYTED,soluble
3,SSNNFNYGAYHSLEAIYHEMDNIAADFPDLARRVKIGHSFENRPMYVLKFSTGKGVRRPAVWLNAGIHSREWISQATAIWTARKIVSDYQRDPAITSILEKMDIFLLPVANPDGYVYTQTQNRLWRKTRSRNPGSSCIGADPNRNWNASFAGKGASDNPCSEVYHGPHANSEVEVKSVVDFIQKHGNFKGFIDLHSYSQLLMYPYGYSVKKAPDAEELDKVARLAAKALASVSGTEYQVGPTCTTVYPASGSSIDWAYDNGIKFAFTFELRDTGTYGFLLPANQIIPTAEETWLGLKTIMEHVRDNLY,soluble
4,STAGKVIKCKAAVLWELKKPFSIEEVEVAPPKAHEVRIKMVAAGICRSDEHVVSGNLVTPLPVILGHEAAGIVESVGEGVTTVKPGDKVIPLFTPQCGKCRICKNPESNYCLKNDLGNPRGTLQDGTRRFTCSGKPIHHFVGVSTFSQYTVVDENAVAKIDAASPLEKVCLIGCGFSTGYGSAVKVAKVTPGSTCAVFGLGGVGLSVVMGCKAAGAARIIAVDINKDKFAKAKELGATECINPQDYKKPIQEVLKEMTDGGVDFSFEVIGQLDTMMASLLCCHEACGTSVIVGVPPDSQNLSINPMLLLTGRTWKGAIFGGFKSKESVPKLVADFMAKKFSLDALITNVLPFEKINEGFDLLRSGKSIRTVLTF,soluble
5,STFVAKDGTQIYFKDWGSGKPVLFSHGWLLDADMWEYQMEYLSSRGYRTIAFDRRGFGRSDQPWTGNDYDTFADDIAQLIEHLDLKEVTLVGFSMGGGDVARYIARHGSARVAGLVLLGAVTPLFGQKPDYPQGVPLDVFARFKTELLKDRAQFISDFNAPFYGINKGQVVSQGVQTQTLQIALLASLKATVDCVTAFAETDFRPDMAKIDVPTLVIHGDGDQIVPFETTGKVAAELIKGAELKVYKDAPHGFAVTHAQQLNEDLLAFLKRGSHHHHHH,soluble
6,STLYEKLGGTTAVDLAVDKFYERVLQDDRIKHFFADVDMAKQRAHQKAFLTYAFGGTDKYDGRYMREAHKELVENHGLNGEHFDAVAEDLLATLKEMGVPEDLIAEVAAVAGAPAHKRDVLNQ,soluble
7,STMLRVRSRDGLERVSVDGPHITVSQLKTLIQDQLQIPIHNQTLSTNRNLLLAKSPSDFLAFTDMADPNLRISSLNLAHGSMVYLAYEGERTIRGGPAVTPAGSFGRKMTVEDLIARQMRVGRQEKAHCDSVSFDRDCANAFQHFVNESLAFAVKRGGFMYGNVSEDGQVEVNFIYEPPQQGMEDNLILMRDSEEEKRVDAIALGLGMRRVGFIFNQTVTQDKKEYTLSNVEVLLAAQLHAESELKEWVTAVVKLEINEDGGADVHFEPFQMSDMCVRLFKEGWFETEIGPEDDPKLSKLKKEVVVGVKDVKEVDNDFFLVLVKILDHQGPLSCTFPIENRNTQTTMRALKTHMERARSLPFVKRISDFHLLLFVAQFLDVSSDVPALAECVRLQSHVPEGYELLIDSMANTS,soluble
8,STNVFIMGHVNPDIDCIGGAIGLYSVLSSKVDGDVHIVLDDTSSSVEGIVNRLVENYDEYKNVFMRSSDCIELIDQGSILILDDVNSRNYVLSEKILEEISKVVVIDHHRRAANYIKDTILSYIESYASSTSELVTEMIQYMDENHKLKPIEAEALLAGIVVDTKNFSFKTGVRTFEAAAFLRKNGADTIEIKKLFSNDL,not soluble
9,STREHPPEPLDFFIWTVEDVGSWLEEINLGGYRQIFKENGVNGEYLESMSVFTTEQILHFIRRHHMKWGDFITLCKELRRIKVACLKGEQRVRRPWWAPSCLSVVFVKAAKRNRQSRVVSLKLES,soluble
10,STSAAQQGRNQNGEYNILDSIIAETRLSPDDEAYDIAKRGVSAFIEELLKPQNDGEPVKKAMVDRMIAEIDAKLSTQMDEILHHPDFQALESAWRGLQLLVDRTNFRENIKIEILSVSKQDLLDDFEDSPEVMQSGLYKHIYTAEYGQFGGQPVGAIIANYYMSPSSPDVKLMQYVSSVACMAHAPFVAAAGPKFFGLESFTGLPDLKDLKDHFEGPQFAKWQSFRQSEDSRYVALTVPRFLLRTPYDPEENPVKSFAYKETVANSHEHYLWGNTAYAFGTKLTDSFAKYRWCPNIIGPQSGGAVEDLPLHHFESMGEIETKIPTEVLVSDRREYELAEEGFISLTMRKGSDNAAFFSASSVQKPKFFGISAEGKAAELNYKLGTQLPYMMIVNRLAHYLKVLQREQLGSWKERTDLELELNKWIRQYVADQENPSAEVRGRRPLRAAQIIVSDVEGEPGWYRVSLNVRPHFKYMGADFTLSLVG,not soluble
11,STTIYDLKKQKDKLLKFYAESDEQILMKNRKTLHKAKNEDLDRVLKEWIRQRRSEHMPLNGMLIMKQAKIYHNELKIEGNCEYSTGWLQKFKKRHGIKFLKTCGNKASAGHEATEKFTGKFSNDDEQDGNFEGFSMSSEKKIMSDLLTYTKNIHPETVSKLEEEDIKDVFNSNNEAPVVHSLSNGEVTKMVLNQDDHDDNDNEDDVNTAEKVPIDDMVKMCDGLIKGLEQHAFITEQEIMSVYKIKERLLRQKASLMRQMTLKETFKKAIQRNASSSLQDPLLGPSTASDASSHLKIK,soluble
12,SVFADQVGVQVIGVNDFHGALDNTGTANMPDGKVANAGTAAQLDAYMDDAQKDFKQTNPNGESIRVQAGDMVGASPANSGLLQDEPTVKNFNAMNVEYGTLGNHEFDEGLAEYNRIVTGKAPAPDSNINNITKSYPHEAAKQEIVVANVIDKVNKQIPYNWKPYAIKNIPVNNKSVNVGFIGIVTKDIPNLVLRKNYEQYEFLDEAETIVKYAKELQAKNVKAIVVLAHVPATSKNDIAEGEAAEMMKKVNQLFPENSVDIVFAGHNHQYTNGLVGKTRIVQALSQGKAYADVRGVLDTDTQDFIETPSAKVIAVAPGKKTGSADIQAIVDQANTIVKQVTEA,not soluble
13,SVGREKELSIHFVPGSCRLVEEEVNIPNRRVLVTGATGLLGRAVHKEFQQNNWHAVGCGFRRARPKFEQVNLLDSNAVHHIIHDFQPHVIVHCAAERRPDVVENQPDAASQLNVDASGNLAKEAAAVGAFLIYISSDYVFDGTNPPYREEDIPAPLNLYGKTKLDGEKAVLENNLGAAVLRIPILYGEVEKLEESAVTVMFDKVQFSNKSANMDHWQQRFPTHVKDVATVCRQLAEKRMLDPSIKGTFHWSGNEQMTKYEMACAIADAFNLPSSHLRPITDSPVLGAQRPRNAQLDCSKLEILGIGQRTPFRIGIKESLWPFLIDKRWRQTVFH,soluble
14,SVKRKSSEGQEQDGGRGIPLPIQTFLWRQTSAFLRPKLGKQYEASCVSFERVLVENKLHGLSPALSEAIQSISRWELVQAALPHVLHCTATLLSNRNKLGHQDKLGVAETKLLHTLHWMLLEAPQDCNNERFGGTDRGSSWGGSSSAFIHQVENQGSPGQPCQSSSNDEEENNRRKIFQNSMATAELFVFLFAPLVHRIKESDLTFRLASGLVIWQPMWEHRQPGVSGFTALVKPIRNIITAKRSSPINSQSRTCESPNQDARHLEGLQVVRETFQSDSISPKATISGCHRGNSFDGSLSSQTSQERGPSHSRSTFHFPP,soluble
15,SVLLSRELHPVAPLLDNLISALNKVYQRKGVNISMDISPEISFVGEQNDFVEVMGNVLDNACKYCLEFVEISARQTDDHLHIFVEDDGPGIPHSKRSLVFDRGQRADTLRPGQGVGLAVAREITEQYAGQIIASDSLLGGARMEVVFGRQHPTQKEE,soluble
